# According to paper PMC7749166 (Communications Biology, 2020):
# Substitutions are numbered along the chain they refer to. Read-outs that look alike come from different tables or passages of the source. Bridge positions count the residues as written; N and C are the ends. Square brackets hold non-standard residues; d marks the D form. Ends that are not written are not given here. dCha = N[C@H](CC1CCCCC1)C(=O)O; Orn = NCCC[C@H](N)C(=O)O
# T1: wild type C5a anaphylatoxin chemotactic receptor 1 (C5aR), reconstituted in DOPC/CHS liposomes (human, UniProt P21730 1-350, sulfonated tyrosine residues (Y11 and Y14))
# T1 construct: C5a anaphylatoxin chemotactic receptor 1 (C5aR), human; wild type; Receptors lie in both orientations in the bilayer; also called C5aR^WT; wtC5aR; source: HEK-293S GnTI- cells (BacMam), purified (Ni-NTA, anti-Flag M1 resin, SEC), reconstituted in DOPC/CHS liposomes; not shown: His8, C-terminal, kept
# T1 sequence (looked up): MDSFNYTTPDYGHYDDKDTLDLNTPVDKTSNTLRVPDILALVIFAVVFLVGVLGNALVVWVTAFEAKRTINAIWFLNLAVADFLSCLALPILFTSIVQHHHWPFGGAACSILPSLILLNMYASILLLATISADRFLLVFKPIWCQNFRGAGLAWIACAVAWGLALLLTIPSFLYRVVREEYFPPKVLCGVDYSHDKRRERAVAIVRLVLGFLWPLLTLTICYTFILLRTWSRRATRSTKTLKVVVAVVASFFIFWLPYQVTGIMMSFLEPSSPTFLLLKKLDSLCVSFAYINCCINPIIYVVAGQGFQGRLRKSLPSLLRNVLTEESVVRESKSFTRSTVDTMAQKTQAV
# T2: C5aRΔTyr mutant (Y11F and Y14F), reconstituted in DOPC/CHS liposomes (human, UniProt P21730 1-350, Y11F | Y14F)
# T2 construct: C5a anaphylatoxin chemotactic receptor 1 (C5aR), human; lack of tyrosine sulfonation validated by western blot; The methods print the mutations as 'Y11F and F14F'; the results print Y11F and Y14F; also called C5aR∆Tyr; source: HEK-293S GnTI- cells (BacMam), purified, reconstituted in DOPC/CHS liposomes
# T2 sequence (looked up): T1 sequence (looked up) with Y11F, Y14F
# B1: complement C5a anaphylatoxin with N-terminal His6-tag (ligand, human, UniProt P01031 678-751, looked up)
# chain: TLQKKIEEIAAKYKHSVVKKCCYDGACVNNDETCEQRAARISLGPRCIKAFTECCVVASQLRANISHKDMQLGR
# notes: C5a anaphylatoxin, the 74-amino acid cut product of complement C5; numbers count on: C5a itself (R74 is its C-terminal residue); Tethered by its His6-tag to a tris-NTA-Ni2+ PEG27 AFM tip; C5a from R&D Systems is named only for the GTPgammaS assay; also called C5a ligand; endogenous C5a ligand; not shown: His6, N-terminal, kept
# B2: PMX53-Gly3-Cys (Cys-Gly3-Phe-[{Orn}Pro-{D-Cha}-Trp-Arg]) (peptide)
# chain: CGGGF[Orn]P[dCha]WR
# modifications: lactam 6-C; not fully specified; printed as Cys-Gly3-Phe-[{Orn}Pro-{D-Cha}-Trp-Arg]
# Experiments:
# C5aR [1] = conditions: cited from earlier work
# Excerpt: GPCRs represent the largest human membrane protein family, having overall more than 800 members, and constitute a “control panel” of the cell[27]. […] However, the peptidic nat ...
# C5aR [2] = conditions: cited from earlier work; remark: listed apart in the source
# Excerpt: G-protein-coupled receptors (GPCRs) are a large family of versatile and dynamic cell surface receptors expressed in almost all tissue types. Upon ligand binding to highly conserved orthosteric binding sites, GPCR pass from a quiescent to an active state, initiating signal transduction. The conservation of orthosteric binding sites throughout the GPCR superfamily and a poor understanding of the mechanism underneath their activation cycle are two key factors currently hampering the development of specific drugs towards a specific sub-type in a GPCR family. […] We simultaneously recorded FD-based AFM height images and adhesion maps (Fig. 3b, c) and extracted FD curves located on C5aR having their native orientation (based on our height criterion) (Fig. 3d). Generally, force-probing methods such as FD-based AFM measure the strength of single bonds under an externally applied force. Described first by the Bell-Evans model, an external force stressing a bond reduces the activation-energy barri ...
# [3] = target: C5aR^WT incubated with PMX53 (effector site blocked) (human) (UniProt P21730); assay: AFM dynamic force spectroscopy (FV- and FD-based AFM, Friddle-Noy-de Yoreo fit); C5a tethered by its N-terminal His6-tag to a tris-NTA-Ni2+ PEG27 tip; C5aR (wild type, mutant, or wild type incubated with PMX53) in DOPC/CHS liposomes adsorbed on mica; imaging buffer 20 mM HEPES, 300 mM NaCl; ≈24 °C; Kd calculated from ΔGbu = kbT × ln(0.018 Kd)
# [4] = target: T1, wild type C5a anaphylatoxin chemotactic …; assay: as above; conditions: both partners purified
# [5] = target: T2, C5aRΔTyr mutant (Y11F and Y14F), …; assay: as above; conditions: both partners purified
# [6] = target: T1, wild type C5a anaphylatoxin chemotactic …; assay: AFM dynamic force spectroscopy (FV- and FD-based AFM, Friddle-Noy-de Yoreo fit); PMX53-Gly3-Cys coupled by its Cys to a PEG27-maleimide tip; C5aR (wild type or mutant) in DOPC/CHS liposomes adsorbed on mica; imaging buffer 20 mM HEPES, 300 mM NaCl; ≈24 °C; Kd calculated from ΔGbu = kbT × ln(0.018 Kd); conditions: both partners purified
molecule,measurement,setting,value
CCCCn1c(-c2ccccc2)nc(-c2ccccc2)c1CN(Cc1ccc2c(c1)OCO2)Cc1ccc2c(c1)OCO2 [NDT9513727],antagonist action,C5aR [1]; recent structural studies,allosteric modulators with highly reversible action
Cc1ccc(NC(=O)[C@H]2CCCN(C(=O)c3c(C)cccc3F)[C@H]2c2ccc(NC3CCCC3)cc2)cc1C(F)(F)F [avacopan],antagonist action,C5aR [1]; recent structural studies,allosteric modulators with highly reversible action
same,therapeutic efficacy,C5aR [1]; to advance into late-stage clinical trials,sufficient therapeutic efficacy
"Ace-Phe-[{Orn}-Pro-{D-Cha}-Trp-Arg] (sidechain bridge or staple) [PMX53, cyclic antagonist peptide that mimics the C-terminal structure of the endogenous C5a ligand]",affinity towards the effector site,C5aR [2],nanomolar affinity
same,antagonist action,C5aR [1],potent orthosteric antagonist with insurmountable action
B1,Kd,[3],800 mM
same,equilibrium force Feq,[3],29 pN
same,residence time τ0.5,[3],0.2 ms
same,Kd,[4],~4.5 nM
same,Kd,[5],~20 mM
B2,Kd,[6],4.7 nM
